Laboratory results published in US9346871B2, “Engineered CXCL12 alpha locked dimer polypeptide” (The Medical College of Wisconsin, priority 2008, dated 2016).
Substitutions are numbered along the chain they refer to. Names may count otherwise. “Also recorded” adds a separate entry of the source. Where two headings read alike, the source gives them in different places.

B1: R20A: wild-type CXCL12-α with R20 replaced by alanine (protein)
chain: KPVSLSYRCPCRFFESHVAAANVKHLKILNTPNCACQIVARLKNNNRQVCIDPKLKWIQEYLEKCLNK
B2: K27A: CXCL12-α mutant, alanine at K27 (protein)
chain: B1 chain with A20R, K27A
B3: K27E: CXCL12-α mutant, glutamic acid at K27 (protein)
chain: B1 chain with A20R, K27E
B4: V39A: CXCL12-α mutant V39A (protein)
chain: B1 chain with A20R, V39A
B5: R47A: CXCL12-α mutant R47A (protein)
chain: B1 chain with A20R, R47A
B6: R47E: CXCL12-α mutant, arginine 47 replaced by glutamic acid (protein)
chain: B1 chain with A20R, R47E
B7: H25R: dimerization-impaired, preferentially monomeric CXCL12-α variant (protein)
chain: B1 chain with A20R, H25R
modifications: ends and bridges not checked
notes: dimerization-impaired, preferentially monomeric CXCL12-α variant
B8: R41A: CXCL12-α mutant R41A (protein)
chain: B1 chain with A20R, R41A
B9: V49A: CXCL12-α mutant V49A (protein)
chain: B1 chain with A20R, V49A
B10: E60A: CXCL12-α mutant E60A (protein)
chain: B1 chain with A20R, E60A
B11: E63A: CXCL12-α mutant E63A (protein)
chain: B1 chain with A20R, E63A
B12: K64A: CXCL12-α mutant K64A (protein)
chain: B1 chain with A20R, K64A

Legend:
CXCL12-α = target: T1, CXCL12-α (Homo sapiens, UniProt P48061); assay: Binding of CXCR4 N-terminal p38 peptides to CXCL12-α; details: read-out: apparent Kd
T1 construct: made in house; host or cells: E. coli
T1 sequence (P48061 22-89 limits assumed): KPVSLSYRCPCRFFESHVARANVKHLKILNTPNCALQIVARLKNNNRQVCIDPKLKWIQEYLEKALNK

CXCR4 = target: T2, CXCR4 (Homo sapiens, UniProt P61073); assay: Ca2+-flux assay of CXCR4 activation in THP-1 cells; type: cell-based
T2 construct: a Ca^2+-flux assay on CXCR4-expressing THP-1 cells; host or cells: THP-1
T2 sequence (P61073 whole entry): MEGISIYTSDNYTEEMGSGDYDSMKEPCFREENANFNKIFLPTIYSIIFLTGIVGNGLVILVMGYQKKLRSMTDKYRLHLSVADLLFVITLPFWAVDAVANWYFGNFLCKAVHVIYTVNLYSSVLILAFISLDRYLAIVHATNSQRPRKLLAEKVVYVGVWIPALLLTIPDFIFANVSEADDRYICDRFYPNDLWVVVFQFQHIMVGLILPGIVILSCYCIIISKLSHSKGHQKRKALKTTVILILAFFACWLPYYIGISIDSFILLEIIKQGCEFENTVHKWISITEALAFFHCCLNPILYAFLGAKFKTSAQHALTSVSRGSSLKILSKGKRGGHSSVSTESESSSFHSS
Text: (§1) The Protein Data Bank (PDB), under accession numbers 2K01, 2K04, 2K03 and 2K05 contain coordinates for these structural models. Restraints employed for structure determination have been deposited in the Biological Magnetic Resonance Bank, accession numbers 15633, 15636, 15635 and 15637. […] THP-1 cells are a CXCR4-expressing monocyte leukemia cell line and were obtained from ATCC.
The inventors monitored activation of CXCR4 using THP-1 cells and a similar Ca^2+-flux assay.

THP-1 cells = assay: Transwell chemotaxis assay of THP-1 cells; type: cell-based
Text: FIG. 5. […] C) Schematic illustration of the bell-shaped profile for CXCL12-α-mediated chemotaxis arising from changes in relative concentrations of chemokine monomer and dimer.
as §1

HIV-1 = details: compared with wild-type chemokine
Text: Certain strains of HIV (X4 or dual tropic) utilize CXCR4 as a co-receptor, and this interaction is critical for fusion of the viral and T cell membranes in the process of HIV entry.

Heparin binding = assay: Heparin binding
Text: Further, in addition to binding CXCR4, CXCL12 also binds to heparin found in the extracellular matrix on cell surfaces. The inventors have shown that the CXCL12α2 locked dimer of the present invention also binds heparin. Amino acid substitutions in CXCL12, including K24S, K27S, or K24S/K27S can prevent heparin binding and increase the half-life of CXCL12 in vivo; therefore, similar mutations in CXCL12α2 would likely prevent heparin binding and increase the in vivo half-life of the dimer.

[1] = Pulsed-field gradient NMR translational diffusion, CXCL12-α monomer-dimer equilibrium; type: physicochemical; details: 10, 50 and 150 μM protein
Method: FIG. 1. […] The lines connecting the cysteines show where the intra- and intermolecular disulfide bonds are. […] Diffusion coefficients (Ds) of wild-type CXCL12 (black circles) in 20 mM sodium phosphate at pH 7.4 plotted versus chemokine concentration. […] D) N-terminal peptides corresponding to the first thirty-eight amino acids of CXCR4 are illustrated.

[2] = Ca2+-flux, CXCR4-expressing THP-1 cells

| Molecule | EC50 (CXCR4; [2]) [nM] | also measured |
| --- | --- | --- |
| CC[C@H](C)[C@H](NC(=O)CNC(=O)[C@H](CCC(=O)O)NC(=O)[C@H](CCSC)NC(=O)[C@H](CO)NC(=O)CN)C(=O)N[C@@H](CO)C(=O)N[C@H](C(=O)N[C@@H](Cc1ccc(OS(=O)(=O)O)cc1)C(=O)N[C@H](C(=O)N[C@@H](CO)C(=O)N[C@@H](CC(=O)O)C(=O)N[C@@H](CC(N)=O)C(=O)N[C@@H](Cc1ccc(OS(=O)(=O)O)cc1)C(=O)N[C@H](C(=O)N[C@@H](CCC(=O)O)C(=O)N[C@@H](CCC(=O)O)C(=O)N[C@@H](CCSC)C(=O)NCC(=O)N[C@@H](CO)C(=O)NCC(=O)N[C@@H](CC(=O)O)C(=O)N[C@@H](Cc1ccc(OS(=O)(=O)O)cc1)C(=O)N[C@@H](CC(=O)O)C(=O)N[C@@H](CO)C(=O)N[C@@H](CCSC)C(=O)N[C@@H](CCCCN)C(=O)N[C@@H](CCC(=O)O)C(=O)N1CCC[C@H]1C(=O)N[C@@H](C)C(=O)N[C@@H](Cc1ccccc1)C(=O)N[C@@H](CCCNC(=N)N)C(=O)N[C@@H](CCC(=O)O)C(=O)N[C@@H](CCC(=O)O)C(=O)N[C@@H](CC(N)=O)C(=O)N[C@@H](C)C(=O)N[C@@H](CC(N)=O)C(=O)N[C@@H](Cc1ccccc1)C(=O)N[C@@H](CC(N)=O)C(=O)N[C@@H](CCCCN)C(=O)O)[C@@H](C)O)[C@@H](C)O)[C@@H](C)CC [p38-sY3] | – | Kd (CXCL12-α): 200 ± 200 nM |
| CXCL12-α2: covalently locked dimer comprising two CXCL12 L36C/A65C sequences (SEQ ID NO: 1) | – | CXCR4 functional character (CXCR4; detection of secondary messenger calcium): partial CXCR4 agonist; chemotactic response (THP-1 cells): failed to attract cells; also recorded: does not chemoattract THP-1 cells; predicted inhibition of HIV-1 entry into human T cells (HIV-1): more effective at lower concentrations; heparin binding (Heparin binding): binds heparin; diffusion coefficient Ds [1]: 1.08-1.09 ×10^−6 cm^2s^−1 |
| B1 | 4.3 ± 0.6 | EC50, CXCR4 activation (CXCR4; [2]): no change in EC50 |
| B2 | 10.1 | – |
| B3 | 16.8 | – |
| B4 | 27.1 | – |
| B5 | 14.1 | – |
| B6 | 654 | – |
| B7 | 5.1 ± 0.9 | chemotactic response (THP-1 cells; listed as CXCL12-α (H25R)): induces chemotaxis over a broader range; chemotactic response (THP-1 cells; listed as CXCL12-α(H25R)): promotes cell migration much more strongly than the wild-type chemokine at higher concentrations |
| B8 | 4.3 ± 0.9 | – |
| B9 | 8.6 ± 2.4 | – |
| B10 | 4.1 ± 0.1 | – |
| B11 | 3.7 ± 0.8 | – |
| B12 | 5 ± 1.1 | – |
